Measurements taken from patent CN114790245A.

Target: 血浆激肽释放酶(plasma kallikrein,PK) (human) (UniProt P03952)
Assay: cell-based or functional assay

UniProt P03952, sequence (P03952 20-638 limits assumed): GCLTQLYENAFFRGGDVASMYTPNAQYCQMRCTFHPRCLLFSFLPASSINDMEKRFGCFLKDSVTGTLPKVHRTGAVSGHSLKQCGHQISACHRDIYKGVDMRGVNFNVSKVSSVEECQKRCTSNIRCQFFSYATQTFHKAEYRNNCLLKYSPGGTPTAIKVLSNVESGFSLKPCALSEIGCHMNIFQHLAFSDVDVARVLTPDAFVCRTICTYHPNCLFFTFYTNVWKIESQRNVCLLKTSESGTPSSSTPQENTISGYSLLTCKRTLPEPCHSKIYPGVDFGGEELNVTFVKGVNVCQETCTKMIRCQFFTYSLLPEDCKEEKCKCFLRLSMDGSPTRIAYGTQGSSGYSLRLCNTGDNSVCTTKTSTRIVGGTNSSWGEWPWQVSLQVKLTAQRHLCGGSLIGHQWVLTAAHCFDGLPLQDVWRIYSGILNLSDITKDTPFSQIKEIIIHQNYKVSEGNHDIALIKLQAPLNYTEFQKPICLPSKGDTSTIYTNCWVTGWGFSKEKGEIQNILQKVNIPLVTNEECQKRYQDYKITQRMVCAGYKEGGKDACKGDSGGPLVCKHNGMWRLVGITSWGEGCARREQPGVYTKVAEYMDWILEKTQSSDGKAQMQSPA

Substance: MHL(Lanadelumab) (antibody)
- IC50(nM), PK activity in human plasma activated with Factor XIIa (H-Pro-Phe-Arg-AMC): 1.17 nM
- IC50(nM), PK enzyme activity on H-Pro-Phe-Arg-AMC (fluorescence): 0.99 nM
